Test results as given in patent US20240317890A1 (INSTITUT CURIE, published 2024).

B1: anti-HER2 humanized synthetic single domain antibody sdAb no 1 (VHH)
VHH: EVQLQASGGGFVQPGGSLRLSCAASGATSNISNMGWFRQAPGKEREFVSAISRAESRPLYYADSVKGRFTISRDNSKNTVYLQMNSLRAEDTATYYCAYMPLVRHKAYWGQGTQVTVSS
notes: Purified sdAb in BLI; also called sdAb 1; hsdAb1
B2: anti-HER2 humanized synthetic single domain antibody sdAb no 5 (VHH)
VHH: EVQLQASGGGFVQPGGSLRLSCAASGYTFSEETMGWFRQAPGKEREFVSAISWNHTFFEYYADSVKGRFTISRDNSKNTVYLQMNSLRAEDTATYYCAVTPLPPNKAYWGQGTQVTVSS
notes: Purified sdAb in BLI; also called sdAb 5; hsdAb 5
B3: anti-HER2 humanized synthetic single domain antibody sdAb no 6 (VHH)
VHH: EVQLQASGGGFVQPGGSLRLSCAASGRGYTGTTMGWFRQAPGKEREFVSAISWTSNQTSYYADSVKGRFTISRDNSKNTVYLQMNSLRAEDTATYYCAMMPLPRWKGYWGQGTQVTVSS
notes: Purified sdAb in BLI; Any tag is not described for this assay; also called sdAb 6
B4: anti-HER2 humanized synthetic single domain antibody sdAb no 2 (VHH)
VHH: EVQLQASGGGFVQPGGSLRLSCAASGDSYNESSMGWFRQAPGKEREFVSAISARGNHPLYYADSVKGRFTISRDNSKNTVYLQMNSLRAEDTATYYCASMPMPKWKKYWGQGTQVTVSS
notes: Purified sdAb in BLI; also called sdAb 2; hsdAb 2
B5: anti-HER2 humanized synthetic single domain antibody sdAb no 4 (VHH)
VHH: EVQLQASGGGFVQPGGSLRLSCAASGYTSRESGMGWFRQAPGKEREFVSAISRDQDGISYYADSVKGRFTISRDNSKNTVYLQMNSLRAEDTATYYCAMIPLTRNAKYWGQGTQVTVSS
notes: Purified sdAb in BLI; Any tag is not described for this assay; also called sdAb 4

Target: T1, recombinant human Her2/ErbB2 Fc Tag (ACROBiosystems) (human, UniProt P04626 23-652)
T1 construct: Bought product; Captured on protein A biosensors; also called HER2-Fc; not shown: Fc tag of the bought product
Experiment: BLI (Octet-HTX), HER2-Fc captured on protein A biosensors, sdAb in solution, 37 C
Description: Affinity measurements: Affinity measurements can be done by surface plasmon resonance (for example as detailed in Moutel, Sandrine et al. “NaLi-H1: A universal synthetic library of humanized nanobodies providing highly functional antibodies and intrabodies.” eLife vol. 5 e16228. 19 Jul. 2016, doi:10.7554/eLife.16228). More particularly, binding affinities of selected hs2dAb fused to a 10HIS tag measured by surface plasmon resonance single cycle kinetics method. Dissociation equilibrium constant KD corresponds to the ratio between off-rate and on-rate kinetic constant Koff/Kₒₙ. […] Affinity measurements were also performed on an Octet-HTX (Sartorius) by bio-Layer Interferometry (BLI) which is an optical technique for measuring macromolecular interactions by analyzing interference patterns of white light reflected from the surface of a biosensor tip. BLI experiments were used to determine the kinetics and affinity of molecular interactions. Biosensors with proteinA were used to capture recombinant human Her2/ErbB2 Fc Tag (ACROBiosystems), the sensors were then dipped in wells containing purified sdAb to measure kinetics at 37° C.
Affinity measurement were also performed using BLI as above detailed.

Row | Binder | Kd [nM] | koff [s⁻¹] | kon [M⁻¹ s⁻¹]
1 | B1 | 4.6 | 0.004 | 880000
2 | B2 | 33.3 | 0.0015 | 44000
3 | B3 | 8.4 | 0.0066 | 780000
4 | B4 | 4.1 | 0.0049 | 1.2e+06
5 | B5 | 5.2 | 0.0076 | 1.47e+06
